{"source": "patent US12709637B2", "about": "“Regulated synthetic gene activation systems” (TRUSTEES OF BOSTON UNIVERSITY, priority 2023, dated 2026)", "molecules": {"B1": {"name": "3Z: transcriptional activator, SEQ ID NO: 303; tested with TIMs on N terminus (protein)", "chain": "MAEEFVTLKDVGMDFTLGDWEQLGLEQGDTFWDTALDNCQDLFLLDPPRPNLTSHPDGSEDLEPLAGGSPEATSMAEEFVTLKDVGMDFTLGDWEQLGLEQGDTFWDTALDNCQDLFLLDPPRPNLTSHPDGSEDLEPLAGGSPEATSMAEEFVTLKDVGMDFTLGDWEQLGLEQGDTFWDTALDNCQDLFLLDPPRPNLTSHPDGSEDLEPLAGGSPEATS"}, "B2": {"name": "NFZ: transcriptional activator, SEQ ID NO: 57, domains from NCOA3, FOXO3 and ZNF473; tested with TIMs on N terminus (protein, listed as Homo sapiens)", "chain": "EGQSDERALLDQLHTLLSNTDATGLEEIDRALGIPELVNQGQALEPKQGGGGSGHEKFPSDLDLDMFNGSLECDMESIIRSELMDADGLDFNFDSGGGGSGFVTLKDVGMDFTLGDWEQLGLEQGDTFWDTALDNCQDLFLLDPP"}}, "key": {"[1]": {"tested_on": "mCherry reporter in Primary T cells", "assay": "4OHT inducible systems driving mCherry reporter in Primary T cells", "type": "cell-based", "text": "Primary T cells were co-transduced with synZiFTR 2.0 and a minimally expressed mCherry reporter."}, "[2]": {"tested_on": "mCherry reporter in Primary T cells", "assay": "GZV inducible systems driving mCherry reporter in Primary T cells", "type": "cell-based", "description": "Primary T cells were co-transduced with synZiFTR 2.0 and a minimally expressed mCherry reporter. Upon addition of GZV, the synZiFTR construct activated mCherry expression, which was measured on a flow cytometer (see e.g., FIG. 10)."}}}
{"molecule": "B1", "values": [{"measurement": "activation potency of the transcriptional activator on fusing TIMs domains on the N terminus", "setting": "[1]", "value": "enhanced activation potency"}]}
{"molecule": "B2", "values": [{"measurement": "activation potency of the transcriptional activator on fusing TIMs domains on the N terminus", "setting": "[1]", "value": "enhanced activation potency"}, {"measurement": "activation potency of the transcriptional activator on fusing TIMs domains on the N terminus", "setting": "[2]", "value": "enhanced activation potency"}]}
